# Laboratory results reported in US20220315654A1.
# Target: recombinant cynomolgus monkey PD-L1 soluble protein (biotinylated) (cynomolgus monkey) (UniProt G7PSE7)
# Experiment: sandwich ELISA: antibody captured on coated anti-human Fc, biotinylated recombinant cynomolgus PD-L1 titrated (x axis, nM), streptavidin-HRP/Amplex red fluorescence
# Chain of recombinant cynomolgus monkey PD-L1 soluble protein (biotinylated) (cynomolgus monkey) (G7PSE7 entry or part of it limits assumed): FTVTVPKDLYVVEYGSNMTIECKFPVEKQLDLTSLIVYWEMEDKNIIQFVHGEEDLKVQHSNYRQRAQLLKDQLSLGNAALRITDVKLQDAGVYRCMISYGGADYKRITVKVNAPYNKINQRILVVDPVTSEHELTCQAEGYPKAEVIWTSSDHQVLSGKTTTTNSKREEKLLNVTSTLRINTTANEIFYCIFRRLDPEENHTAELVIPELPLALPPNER
# Chain of Avelumab (antibody) (VH): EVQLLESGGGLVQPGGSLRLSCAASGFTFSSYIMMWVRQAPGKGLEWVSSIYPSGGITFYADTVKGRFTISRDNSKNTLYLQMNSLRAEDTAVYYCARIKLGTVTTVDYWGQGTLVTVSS
# Chain of Avelumab (antibody) (VL): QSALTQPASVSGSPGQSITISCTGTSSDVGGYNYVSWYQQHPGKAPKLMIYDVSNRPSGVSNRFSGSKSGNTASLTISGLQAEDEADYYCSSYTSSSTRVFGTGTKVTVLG
substance,measurement,value
Avelumab (antibody),EC50 (read off the curve),0.05 nM
